Results reported in patent US20240076384A1 (DRAGONFLY THERAPEUTICS, published 2024).
Changes are numbered by the printed parent chain.

T1: ULBP6 (NKG2D natural ligand) (Homo sapiens (Human), UniProt Q5VY80 26-218)
T1 sequence: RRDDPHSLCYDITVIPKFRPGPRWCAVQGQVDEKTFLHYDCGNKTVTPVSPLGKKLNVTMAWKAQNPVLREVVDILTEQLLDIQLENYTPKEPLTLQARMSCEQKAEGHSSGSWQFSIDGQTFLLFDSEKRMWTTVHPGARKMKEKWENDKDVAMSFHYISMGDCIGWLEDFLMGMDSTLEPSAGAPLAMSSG

T2: human NKG2D expressed on EL4 cells (human, UniProt P26718 1-216)
T2 construct: whole, on cells; also called NKG2D on EL4 cells; extracellular NKG2D expressed on EL4 cells
T2 sequence (looked up): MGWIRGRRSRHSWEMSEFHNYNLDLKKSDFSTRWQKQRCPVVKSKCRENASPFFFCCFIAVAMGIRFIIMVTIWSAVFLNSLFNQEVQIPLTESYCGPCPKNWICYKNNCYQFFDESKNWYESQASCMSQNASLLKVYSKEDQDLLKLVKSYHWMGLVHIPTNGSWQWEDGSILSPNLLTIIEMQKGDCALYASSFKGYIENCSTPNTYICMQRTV

B1: NKG2D monoclonal antibody comprising F47 (antibody, V domains shown)
VH: QVQLQQWGAGLLKPSETLSLTCAVYGGSFSGYYWSWIRQPPGKGLEWIGEIDHSGSTNYNPSLKSRVTISVDTSKNQFSLKLSSVTAADTAVYYCARARGPWSFDPWGQGTLVTVSS
VL: DIQMTQSPSTLSASVGDRVTITCRASQSISSWLAWYQQKPGKAPKLLIYKASSLESGVPSRFSGSGSGTEFTLTISSLQPDDFATYYCQQYDTFITFGGGTKVEIK
notes: Monoclonal antibody
B2: soluble mouse Fc-human NKG2D dimer (Fc fusion, UniProt P26718 78-216, looked up)
chain: FLNSLFNQEVQIPLTESYCGPCPKNWICYKNNCYQFFDESKNWYESQASCMSQNASLLKVYSKEDQDLLKLVKSYHWMGLVHIPTNGSWQWEDGSILSPNLLTIIEMQKGDCALYASSFKGYIENCSTPNTYICMQRTV
notes: also called mFc-hNKG2D; fusion protein of human NKG2D and murine Fc; not shown: mouse (murine) Fc
B3: CD33-TriNKET-A44 (ADI-27744 and a CD33 binding domain) (bispecific antibody, V domains shown)
VH 1: not shown
VL 1: DIQMTQSPSSVSASVGDRVTITCRASQGIDSWLAWYQQKPGKAPKLLIYAASSLQSGVPSRFSGSGSGTDFTLTISSLQPEDFATYYCQQGVSYPRTFGGGTKVEIK
VH 2: QVQLVQSGAEVKKPGASVKVSCKASGYTFTDYVVHWVRQAPGQGLEWMGYINPYNDGTKYNEKFKGRVTMTRDTSISTAYMELSRLRSDDTAVYYCARDYRYEVYGMDYWGQGTLVTVSS
VL 2: DIVLTQSPASLAVSPGQRATITCTASSSVNYIHWYQQKPGQPPKLLIYDTSKVASGVPARFSGSGSGTDFTLTINPVEANDTANYYCQQWRSYPLTFGQGTKLEIK
B4: NKG2D monoclonal antibody comprising ADI-27749 (antibody, V domains shown)
VH: EVQLVESGGGLVKPGGSLRLSCAASGFTFSSYSMNWVRQAPGKGLEWVSSISSSSSYIYYADSVKGRFTISRDNAKNSLYLQMNSLRAEDTAVYYCARGAPMGAAAGWFDPWGQGTLVTVSS
VL: B3 VL 1 with D30S, Y94F
notes: also called A49
B5: CD33-TriNKET-F63 (ADI-29463 and a CD33 binding domain) (bispecific antibody, V domains shown)
VH 1: not shown
VL 1: EIVLTQSPGTLSLSPGERATLSCRASQSVSSNLAWYQQKPGQAPRLLIYGASTRATGIPARFSGSGSGTEFTLTISSLQSEDFAVYYCQQDDYWPPTFGGGTKVEIK
VH 2: B3 VH 2
VL 2: B3 VL 2
B6: CD33-TriNKET-A49 (ADI-27749 and a CD33 binding domain) (bispecific antibody, V domains shown)
VH 1: B4 VH
VL 1: B3 VL 1 with D30S, Y94F
VH 2: B3 VH 2
VL 2: B3 VL 2
B7: NKG2D monoclonal antibody comprising ADI-27744 (antibody, V domains shown)
VH: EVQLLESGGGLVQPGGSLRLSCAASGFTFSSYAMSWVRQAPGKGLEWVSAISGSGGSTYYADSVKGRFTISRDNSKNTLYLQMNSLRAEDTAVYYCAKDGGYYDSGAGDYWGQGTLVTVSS
VL: B3 VL 1
notes: also called A44
B8: Human monoclonal antibody containing NKG2D-binding domain ADI-29379 (antibody, V domains shown)
VH: QVQLVQSGAEVKKPGASVKVSCKASGYTFTSYYMHWVRQAPGQGLEWMGIINPSGGSTSYAQKFQGRVTMTRDTSTSTVYMELSSLRSEDTAVYYCARGAPNYGDTTHDYYYMDVWGKGTTVTVSS
VL: B5 VL 1 with L4M, G9A, L13V, D91Y, Y93D, P96F
notes: Tested as a human monoclonal antibody; also called E79; ADI-29379 (E79)
B9: Human monoclonal antibody containing NKG2D-binding domain ADI-29378 (antibody, V domains shown)
VH: QVQLVQSGAEVKKPGASVKVSCKASGYTFTSYYMHWVRQAPGQGLEWMGIINPSGGSTSYAQKFQGRVTMTRDTSTSTVYMELSSLRSEDTAVYYCAREGAGFAYGMDYYYMDVWGKGTTVTVSS
VL: B5 VL 1 with G9A, N32Y, G50D, T53N, E70D, Q79E, S80P, D91S, Y93N, P96F
notes: Tested as a human monoclonal antibody; also called E78; ADI-29378 (E78)

What was measured:
[1] = biological target: B2; assay: SPR (Biacore 8K, 25 C), captured mouse Fc-human NKG2D, consecutive injections; F47 injected after A44 was bound
Excerpt: (§1) Briefly, mouse Fc-human NKG2D was captured using an anti-mouse Fc antibody immobilized on a CM5 chip at a density of approximately 100 RU. […] Biacore 8K evaluation software was used for all data analysis.

[2] = biological target: T1, ULBP6 (NKG2D natural ligand); assay: SPR (Biacore 8K, 25 C), captured mouse Fc-human NKG2D, consecutive injections; ULBP6 injected after A44 (ADI-27744 antibody) was bound
Excerpt: as §1

[3] = biological target: T3, CD33 expressed on human AML cell line MV4-11 (human, UniProt P20138 18-364); assay: flow cytometry on Mv4-11 cells, anti-human IgG secondary, fold over background against secondary antibody control
T3 construct: whole, on cells; also called CD33 expressed on Mv4-11 cells
Procedure: Human AML cell line MV4-11, expressing CD33 was used to assay the binding of TriNKETs to the tumor-associated antigen. TriNKETs and the parental CD33 monoclonal antibody were incubated with the cells, and the binding was detected using fluorophore-conjugated anti-human IgG secondary antibodies. Cells were analyzed by flow cytometry, and fold-over-background (FOB) was calculated using the mean fluorescence intensity (MFI) from TriNKETs and the parental monoclonal CD33 antibody normalized to secondary antibody controls.

[4] = biological target: T2, human NKG2D expressed on EL4 cells; assay: flow cytometry on EL4 cells expressing NKG2D, anti-human IgG secondary, fold over background against parental EL4 cells
Procedure: EL4 mouse lymphoma cell lines were engineered to express human NKG2D. […] The binding of the multispecific binding proteins to NKG2D was detected using fluorophore-conjugated anti-human IgG secondary antibodies. Cells were analyzed by flow cytometry, and fold-over-background (FOB) was calculated using the mean fluorescence intensity (MFI) of NKG2D expressing cells compared to parental EL4 cells.

[5] = biological target: B2; assay: SPR (Biacore 8K), antibody captured on anti-human Fc, soluble mouse Fc-human NKG2D dimer as analyte, 37 C, 1:1 fit
Procedure: (§2) Kinetics and affinity of various NKG2D-binding domains were assessed by surface plasmon resonance using Biacore 8K instrument (GE Healthcare). Anti-human Fc antibody was immobilized on a CM5 chip using standard amine coupling chemistry. Human monoclonal antibodies containing various NKG2D-binding domains were captured on the anti-human Fc chip at a density of approximately 100 RU. Solutions containing 0.411-100 nM soluble mouse Fc-human NKG2D dimers were injected over the captured NKG2D antibodies and control surfaces at 30 μl/min at 37° C. Surfaces were regenerated between cycles by quick injection of 10 mM glycine, pH 1.8. To obtain kinetic rate constants, double-referenced data were fit to a 1:1 interaction model using Biacore 8K Evaluation software (GE Healthcare). The equilibrium binding constant KD was determined by the ratio of dissociation constant kd and association constant kₐ (kd/kₐ).

[6] = biological target: B2; assay: SPR (Biacore 8K), antibody captured on anti-human Fc, soluble mouse Fc-human NKG2D dimer as analyte, 37 C, kd/ka
Procedure: as §2

[7] = biological target: B2; assay: SPR (Biacore 8K); lower end of the group's range, tied to ADI-27744 by Table 9
Procedure: as §2

T3 sequence (P20138 18-364): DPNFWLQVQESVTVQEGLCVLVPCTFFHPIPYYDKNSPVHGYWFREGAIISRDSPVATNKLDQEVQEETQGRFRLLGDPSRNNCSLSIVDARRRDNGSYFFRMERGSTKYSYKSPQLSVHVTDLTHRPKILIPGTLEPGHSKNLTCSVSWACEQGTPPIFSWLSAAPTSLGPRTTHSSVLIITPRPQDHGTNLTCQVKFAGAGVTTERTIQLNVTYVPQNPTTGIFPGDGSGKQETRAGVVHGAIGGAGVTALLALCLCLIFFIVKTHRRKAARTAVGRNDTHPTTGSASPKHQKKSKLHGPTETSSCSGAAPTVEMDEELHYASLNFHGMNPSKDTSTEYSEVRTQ

Row | Binder | binding result [3] | koff [5] [s⁻¹] | kon [5] [M⁻¹ s⁻¹] | Kd [6] [nM] | also measured
1 | B1 | – | – | – | – | binding result [1]: binds
2 | B2 | – | – | – | – | binding result [2]: binds
3 | B3 | binds | – | – | – | binding result [4]: binds
4 | B4 | – | 0.00489 | 395000 | 12.4 | –
5 | B5 | binds | – | – | – | –
6 | B6 | binds | – | – | – | binding result [4]: binds
7 | B7 | – | 0.00299 | 295000 | 10.1 | Kd [7]: 10 to 62 nM
8 | B8 | – | 0.0225 | 443000 | 50.7 | –
9 | B9 | – | 0.0487 | 832000 | 58.5 | –
